US7964369

Molecular target: bacterial recombinant GST-GRAIL fusion protein, Q9D304
Sequence (Q9D304 whole entry, looked up, the tested form may be a part): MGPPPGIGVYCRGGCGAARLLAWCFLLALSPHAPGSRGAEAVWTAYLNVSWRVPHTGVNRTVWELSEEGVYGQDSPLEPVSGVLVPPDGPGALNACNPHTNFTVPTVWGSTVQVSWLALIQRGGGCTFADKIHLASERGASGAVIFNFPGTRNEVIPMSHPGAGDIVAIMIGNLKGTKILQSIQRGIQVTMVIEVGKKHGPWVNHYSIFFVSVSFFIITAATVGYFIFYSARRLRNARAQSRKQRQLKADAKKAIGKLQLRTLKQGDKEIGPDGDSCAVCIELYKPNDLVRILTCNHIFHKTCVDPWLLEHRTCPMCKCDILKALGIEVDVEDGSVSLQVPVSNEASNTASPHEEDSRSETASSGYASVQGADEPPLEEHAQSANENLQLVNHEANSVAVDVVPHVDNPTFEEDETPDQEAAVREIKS

B1: USP8 expressed in E. coli (pET28) (protein)
chain: MPAVASVPKELYLSSSLKDLNKKTEVKPEKTSTKNYIHSAQKIFKTAEECRLDRDEERAYVLYMKYVAVYNLIKKRPDFKQQQDYYLSILGPANIKKAIEEAERLSESLKLRYEEAEVRKQLEEKDRREEEQLQQQKRQEMGREDSGAAAKRSVENLLDSKTKTQRINGEKSEGAAAAERGAITAKELYTMMMDKNTSLIIMDARKIQDYQHSCILDSLSVPEEAISPGVTASWIEANLSDDSKDTWKKRGSVDYVVLLDWFSSAKDLLLGTTLRSLKDALFKWESKTVLRHEPLVLEGGYENWLLCYPQFTTNAKVTPPPRSRAEEVSVSLDFTYPSLEEPVPSKLPTQMPPPPIETNEKALLVTDQDEKLRLSTQPALAGPGAAPRAEASPIIQPAPATKSVPQVDRTKKPSVKLPEDHRIKSENTDQSGRVLSDRSTKPVFPSPTTMLTDEEKARIHQETALLMEKNKQEKELWDKQQKEQKEKLRREEQERKAGKTQDADERDSTENQHKAKDGQEKKDSKQTKTEDRELSADGAQEATGTQRQSKSEHEASDAKVPVEGKRCPTSEAQKRPADVSPASVSGELNAGKAQREPLTRARSEEMGRIVPGLPLGWAKFLDPITGTFRYYHSPTNTVHMYPPEMAPSSAPPSTPPTHKVKPQVPAERDREPSKLKRSYSSPDITQALQEEEKRRPAVTPMVNRENKPPCYPKAEISRLSASQIRNLNPVFGGSGPALTGLRNLGNTCYMNSILQCLCNAPHLADYFNRNCYQDDINRSNLLGHKGEVAEEFGIIMKALWTGQYRYISPKDFKVTIGKINDQFAGSSQQDSQELLLFLMDGLHEDLNKADNRKRHKEENNEHLDDLQAAEHAWQKHKQLNESIIVALFQGQFKSTVQCLTCRRRSRTFEAFMYLSLPLASTSKCTLQDCLRLFSKEEKLTDNNRFYCSHCRARRDSLKKIEIWKLPPVLLVHLKRFSYDGRWKQKLQTSVDFPLENLDLSQYVIGPKNSLKKYNLFSVSNHYGGLDGGHYTAYCKNAARQRWFKFDDHEVSDISVSSVRSSAAYILFYTSLGPRITDVAT
  de-ubiquitination of auto-ubiquitinated GST-GRAIL in vitro: USP8 is capable of de-ubiquitinating GRAIL in vitro
